In the supplement of paper PMC9233669:
This sample holds only a part of the variants without activity.

Columns and labels:
biotinyl-Met-oxazolone = experiment: self-aminoacylation, catalytic enhancement (BMO) (fold over background); higher = more active; k-Seq, kA / k0A0; sequences stand for … in GGGAAUGGAUCCACAUCUACGAAUUC…UUCACUGCAGACUUGACGAAGCUG
Method in brief: (§1)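 Mutagenized RNA pools (0.43 μM; 21-nt variable region) were treated with 2–1250 μM of each biotinyl-aminoacyl-oxazolone. Conditions were 50 μL HEPES/NaCl/KCl/MgCl2/CaCl2 buffer, 5% acetonitrile, pH 6.9–7.0, room temperature, 90 minutes. Catalytic enhancement, the median kA relative to the uncatalyzed rate, was derived from streptavidin capture, qPCR and Illumina sequencing.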

biotinyl-Leu-oxazolone = experiment: self-aminoacylation, catalytic enhancement (BLO) (fold over background); higher = more active; k-Seq, kA / k0A0; sequences stand for … in GGGAAUGGAUCCACAUCUACGAAUUC…UUCACUGCAGACUUGACGAAGCUG
Method in brief: as §1

biotinyl-Trp-oxazolone = experiment: self-aminoacylation, catalytic enhancement (BWO) (fold over background); higher = more active; k-Seq, kA / k0A0; sequences stand for … in GGGAAUGGAUCCACAUCUACGAAUUC…UUCACUGCAGACUUGACGAAGCUG
Method in brief: as §1

biotinyl-Phe-oxazolone = experiment: self-aminoacylation, catalytic enhancement (BFO) (fold over background); higher = more active; k-Seq, kA / k0A0; sequences stand for … in GGGAAUGGAUCCACAUCUACGAAUUC…UUCACUGCAGACUUGACGAAGCUG
Method in brief: as §1

biotinyl-Ile-oxazolone = experiment: self-aminoacylation, catalytic enhancement (BIO) (fold over background); higher = more active; k-Seq, kA / k0A0; sequences stand for … in GGGAAUGGAUCCACAUCUACGAAUUC…UUCACUGCAGACUUGACGAAGCUG
Method in brief: as §1

biotinyl-Val-oxazolone = experiment: self-aminoacylation, catalytic enhancement (BVO) (fold over background); higher = more active; k-Seq, kA / k0A0; sequences stand for … in GGGAAUGGAUCCACAUCUACGAAUUC…UUCACUGCAGACUUGACGAAGCUG
Method in brief: as §1

Sequence	self-aminoacylation (biotinyl-Met-oxazolone)	self-aminoacylation (biotinyl-Leu-oxazolone)	self-aminoacylation (biotinyl-Trp-oxazolone)	self-aminoacylation (biotinyl-Phe-oxazolone)	self-aminoacylation (biotinyl-Ile-oxazolone)	self-aminoacylation (biotinyl-Val-oxazolone)
GAGUUUGCUAAUAGUCUCAAG [Fam3.1 aminoacylation ribozyme variant]	0.852	0.855	2.43	6.85	1.32	1.08
AUAAGCCUGGUCAUCGAGUGA [Fam2.1 aminoacylation ribozyme variant]	6.25	7.06	9.48	29.4	4.71	4.25
GUUCACUUAGGUCAUCGGGUG [Fam2.2 aminoacylation ribozyme variant]	4.97	6.01	5.21	27.9	3.48	3.12
ACUCACCUAGGUCAUCGGGAG [Fam2.2 aminoacylation ribozyme variant]	2.48	2.28	2.46	1.04	2.33	2.08
CUACGUCAAACAAUCGGUAUG [Fam1A.1 aminoacylation ribozyme variant]	1.39	1.11	1.53	1.02	1.12	1.12
AUACACCUAGGCCAUCGGGUG [Fam2.2 aminoacylation ribozyme variant]	2.42	3.51	3.66	12.9	2.73	2.32
CUACUUCAGACAACCGGUCUG [Fam1A.1 aminoacylation ribozyme variant]	1.22	1.03	0.969	0.886	0.968	1.28
AUUCACCUAGAUCAUCGAGUG [Fam2.2 aminoacylation ribozyme variant]	1.33	1.64	0.729	1.68	1.14	1.32
CUACUUCCAACAAUCGGUCGG [Fam1A.1 aminoacylation ribozyme variant]	1.01	1.03	1.28	0.78	1.04	1.07
CGGCUUCAAACAAUCGGUCUG [Fam1A.1 aminoacylation ribozyme variant]	1.62	2.46	45.1	106	1.41	1.49
AUUCAACUAGGUCAUCGGGGG [Fam2.2 aminoacylation ribozyme variant]	1.59	1.86	2.56	0.813	1.75	1.66
AUUACCCUGUUCAUCUAGUGA [Fam2.1 aminoacylation ribozyme variant]	16.4	14.8	17.3	86.2	6.08	7.03
AUGACCCUGGUCAUCGAGUGG [Fam2.1 aminoacylation ribozyme variant]	30	31	20.9	215	7.48	8.22
AACUUUGCUAUUAGUCGCAAG [Fam3.1 aminoacylation ribozyme variant]	2.34	2.73	2.99	4.36	2.57	2
AAGUUUGCUAAUAGUCGGAAC [Fam3.1 aminoacylation ribozyme variant]	1.01	0.951	1.05	0.662	1.05	0.851
AUUCUCCUAGGUCAGCGGGUG [Fam2.2 aminoacylation ribozyme variant]	6.21	8.81	8.04	43.1	4.22	3.99
AUCCACCUAGGUCAUCGGGUG [Fam2.2 aminoacylation ribozyme variant]	32.1	42	25	240	18.4	17
CCACACUUCAAGCAAGCGGCC [Fam1B.1 aminoacylation ribozyme variant]	2.63	3.28	1.46	0.898	2.38	2.96
CUACUGGAAACAAUCGGUCUG [Fam1A.1 aminoacylation ribozyme variant]	0.933	0.885	0.514	0.507	0.887	0.837
CUACUUCAAACAUGCGGUCUG [Fam1A.1 aminoacylation ribozyme variant]	1.39	1.61	0.769	3.21	1.27	1.34
AUUACCCUGGUGACCGAGUGA [Fam2.1 aminoacylation ribozyme variant]	9.44	11.1	12.5	66.1	4.29	4.93
AUUCACCUAGUUCAUCGGAUG [Fam2.2 aminoacylation ribozyme variant]	1.03	0.819	0.827	0.611	0.963	0.951
AUUACCCCGGUAAUCGAGUGA [Fam2.1 aminoacylation ribozyme variant]	5.18	4.59	5.41	26.7	2.73	2.85
AAGUUUACUAAUCGUCGCAAG [Fam3.1 aminoacylation ribozyme variant]	1.13	1.55	1.35	2.66	1.64	1.46
CUACUUCAAACGAUCGGUCAG [Fam1A.1 aminoacylation ribozyme variant]	0.36	0.566	0.625	0.808	0.621	0.535
AAGUUUGGUACUAGUCGCAAG [Fam3.1 aminoacylation ribozyme variant]	2.03	1.57	1.73	2.39	1.66	1.7

Sequence	self-aminoacylation (biotinyl-Met-oxazolone)	self-aminoacylation (biotinyl-Leu-oxazolone)	self-aminoacylation (biotinyl-Trp-oxazolone)	self-aminoacylation (biotinyl-Phe-oxazolone)	self-aminoacylation (biotinyl-Ile-oxazolone)	self-aminoacylation (biotinyl-Val-oxazolone)
UUUCACCUCGGUCAUCGGGUG [Fam2.2 aminoacylation ribozyme variant]	3.79	5.28	6.19	38.3	3.61	4.79
AUUACCCUGGUCAUCGACUUA [Fam2.1 aminoacylation ribozyme variant]	0.636	0.544	0.414	0.425	0.596	0.818
AUUACUUUGGUCAUCGAGUGA [Fam2.1 aminoacylation ribozyme variant]	6.07	7.1	8.06	25.8	3.55	3.57
AUUCACCUAGGUCAUCGGGGU [Fam2.2 aminoacylation ribozyme variant]	7.67	12.2	7.01	40.5	5.09	5.09
ACACACUUCAAGCUAUCGGUC [Fam1B.1 aminoacylation ribozyme variant]	1.03	1.1	0.982	1.15	1.33	1.2
AGGUUUGCUAAUAGUCGGAAG [Fam3.1 aminoacylation ribozyme variant]	1.24	1.02	3.12	12.2	1.22	0.944
AUUACCCUCGUCAUCGAGUUA [Fam2.1 aminoacylation ribozyme variant]	0.915	0.983	0.486	0.569	0.965	0.943
CCACACUUCAAGCUAUCUGUC [Fam1B.1 aminoacylation ribozyme variant]	0.284	0.362	0.371	0.636	0.468	0.612
AUUCACCUAGGUCAUCCGUUG [Fam2.2 aminoacylation ribozyme variant]	0.997	1.16	0.699	4.37	1.31	1.19
AUUACACUGUUCAUCGAGUGA [Fam2.1 aminoacylation ribozyme variant]	3.76	2.97	4.78	3.06	2.01	2.17
GCACACUUCAACCAAUCGGUC [Fam1B.1 aminoacylation ribozyme variant]	2.02	2.93	44	60.5	2.39	2.43
AGUCACCUAGGUCAUCGGUUG [Fam2.2 aminoacylation ribozyme variant]	1.99	2.12	1.82	10.1	1.83	1.71
CCACACGUCACGCAAUCGGUC [Fam1B.1 aminoacylation ribozyme variant]	2.03	1.84	1.95	3.73	1.58	2.16
CCACACUUUAGGCAAUCGGUC [Fam1B.1 aminoacylation ribozyme variant]	0.96	0.831	0.713	0.648	1.12	1.01
CCACACUUCGAGCAAUCGUUC [Fam1B.1 aminoacylation ribozyme variant]	0.412	0.493	0.469	0.683	0.516	0.569
ACUCACCUAGCUCAUCGGGUG [Fam2.2 aminoacylation ribozyme variant]	2.47	2.17	2.44	0.904	2.02	1.92
AUUCACCCAGUUCAUCGGGUG [Fam2.2 aminoacylation ribozyme variant]	2.52	2.6	2.33	10.8	2.48	2.72
AAGUAUGCAAAUAGUCGCAAG [Fam3.1 aminoacylation ribozyme variant]	1.06	1.02	1.76	1.55	1.17	1.05
AAUACGCUGGUCAUCGAGUGA [Fam2.1 aminoacylation ribozyme variant]	4.31	5	5.67	15.1	3.67	3.88
ACAACCCUGGUCAUCGAGUGA [Fam2.1 aminoacylation ribozyme variant]	11.4	12.2	12.5	17.4	6.16	5.2
AGAACCCUGGUCAUCGAGUGA [Fam2.1 aminoacylation ribozyme variant]	57.5	58.5	56.9	354	19.6	21.2
CUACUUCAAGCAAUCGGCCUG [Fam1A.1 aminoacylation ribozyme variant]	1.74	2.44	16.4	18.9	1.85	1.6
CCACACUUCAUGCUAUCGGUC [Fam1B.1 aminoacylation ribozyme variant]	0.626	0.69	0.714	0.838	0.834	0.931
AUUCACCUAGGUCAUCGGAUU [Fam2.2 aminoacylation ribozyme variant]	0.853	0.837	1.19	0.438	0.872	0.864
CCCCACUUCAAGCUAUCGGUC [Fam1B.1 aminoacylation ribozyme variant]	1.05	1.12	2.01	2.16	1.42	1.71
